*1 amine or outer side, *2 acyl side, *3 side chain or, on linkers, in order; H or OH if unused. Where no end group is shown, it is not given here. Side-chain parts run from the residue outwards. [ ]: non-standard residue; d: D form. The star is where a group is joined. γGlu = O=C(O)[C@H](CCC(=O)[*:2])N[*:1]; C14 diacid = O=C(O)CCCCCCCCCCCCC(=O)*; NMeI = CC[C@H](C)[C@H](NC)C(=O)O; Api = NC1(C(=O)O)CCNCC1; AEEA = NCCOCCOCC(=O)O; Aib = CC(C)(N)C(=O)O
T1: CRF1R receptor (UniProt P34998 24-415, limits assumed)
T1 sequence (looked up): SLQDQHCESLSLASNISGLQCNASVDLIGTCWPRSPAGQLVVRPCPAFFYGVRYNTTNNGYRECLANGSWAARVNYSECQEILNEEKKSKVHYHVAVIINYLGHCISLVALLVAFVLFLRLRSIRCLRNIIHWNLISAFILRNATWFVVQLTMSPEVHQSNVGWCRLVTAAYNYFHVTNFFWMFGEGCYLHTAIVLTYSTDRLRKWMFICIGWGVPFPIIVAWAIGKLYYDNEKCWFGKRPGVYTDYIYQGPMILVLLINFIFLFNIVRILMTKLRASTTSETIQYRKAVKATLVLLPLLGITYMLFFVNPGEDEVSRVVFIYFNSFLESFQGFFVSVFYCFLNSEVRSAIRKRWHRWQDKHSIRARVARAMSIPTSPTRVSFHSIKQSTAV

B1: SEQ ID NO 174 (peptide)
peptide: Ac-IVLSLD[dV]PIKLK([AEEA-γGlu-γGlu-C14 diacid])KILLEQEKQKKQREQAETN[Aib]QILAQV-NH2
B2: SEQ ID NO 177 (peptide)
peptide: [NMeI]VLSLD[dV]PIKLK([γGlu-C14 diacid])KILLEQEKQK[Aib]QREQAETN[Aib]QILAQV-NH2
modifications: N-terminus assumed
SMILES: CC[C@H](C)[C@H](NC)C(=O)N[C@H](C(=O)N[C@@H](CC(C)C)C(=O)N[C@@H](CO)C(=O)N[C@@H](CC(C)C)C(=O)N[C@@H](CC(=O)O)C(=O)N[C@@H](C(=O)N1CCC[C@H]1C(=O)N[C@H](C(=O)N[C@@H](CCCCN)C(=O)N[C@@H](CC(C)C)C(=O)N[C@@H](CCCCNC(=O)CC[C@H](NC(=O)CCCCCCCCCCCCC(=O)O)C(=O)O)C(=O)N[C@@H](CCCCN)C(=O)N[C@H](C(=O)N[C@@H](CC(C)C)C(=O)N[C@@H](CC(C)C)C(=O)N[C@@H](CCC(=O)O)C(=O)N[C@@H](CCC(N)=O)C(=O)N[C@@H](CCC(=O)O)C(=O)N[C@@H](CCCCN)C(=O)N[C@@H](CCC(N)=O)C(=O)N[C@@H](CCCCN)C(=O)NC(C)(C)C(=O)N[C@@H](CCC(N)=O)C(=O)N[C@@H](CCCNC(=N)N)C(=O)N[C@@H](CCC(=O)O)C(=O)N[C@@H](CCC(N)=O)C(=O)N[C@@H](C)C(=O)N[C@@H](CCC(=O)O)C(=O)N[C@H](C(=O)N[C@@H](CC(N)=O)C(=O)NC(C)(C)C(=O)N[C@@H](CCC(N)=O)C(=O)N[C@H](C(=O)N[C@@H](CC(C)C)C(=O)N[C@@H](C)C(=O)N[C@@H](CCC(N)=O)C(=O)N[C@H](C(N)=O)C(C)C)[C@@H](C)CC)[C@@H](C)O)[C@@H](C)CC)[C@@H](C)CC)C(C)C)C(C)C
B3: SEQ ID NO 179 (peptide)
peptide: [NMeI]VLSLD[dV]PIKLK([AEEA-AEEA-γGlu-γGlu-C14 diacid])KILLEQEKQKKQREQAETN[Aib]QILAQV-NH2
modifications: N-terminus assumed
SMILES: CC[C@H](C)[C@H](NC)C(=O)N[C@H](C(=O)N[C@@H](CC(C)C)C(=O)N[C@@H](CO)C(=O)N[C@@H](CC(C)C)C(=O)N[C@@H](CC(=O)O)C(=O)N[C@@H](C(=O)N1CCC[C@H]1C(=O)N[C@H](C(=O)N[C@@H](CCCCN)C(=O)N[C@@H](CC(C)C)C(=O)N[C@@H](CCCCNC(=O)COCCOCCNC(=O)COCCOCCNC(=O)CC[C@H](NC(=O)CC[C@H](NC(=O)CCCCCCCCCCCCC(=O)O)C(=O)O)C(=O)O)C(=O)N[C@@H](CCCCN)C(=O)N[C@H](C(=O)N[C@@H](CC(C)C)C(=O)N[C@@H](CC(C)C)C(=O)N[C@@H](CCC(=O)O)C(=O)N[C@@H](CCC(N)=O)C(=O)N[C@@H](CCC(=O)O)C(=O)N[C@@H](CCCCN)C(=O)N[C@@H](CCC(N)=O)C(=O)N[C@@H](CCCCN)C(=O)N[C@@H](CCCCN)C(=O)N[C@@H](CCC(N)=O)C(=O)N[C@@H](CCCNC(=N)N)C(=O)N[C@@H](CCC(=O)O)C(=O)N[C@@H](CCC(N)=O)C(=O)N[C@@H](C)C(=O)N[C@@H](CCC(=O)O)C(=O)N[C@H](C(=O)N[C@@H](CC(N)=O)C(=O)NC(C)(C)C(=O)N[C@@H](CCC(N)=O)C(=O)N[C@H](C(=O)N[C@@H](CC(C)C)C(=O)N[C@@H](C)C(=O)N[C@@H](CCC(N)=O)C(=O)N[C@H](C(N)=O)C(C)C)[C@@H](C)CC)[C@@H](C)O)[C@@H](C)CC)[C@@H](C)CC)C(C)C)C(C)C
B4: SEQ ID NO 175 (peptide)
peptide: Ac-IVLSLD[dV]PIKLK([AEEA-AEEA-γGlu-γGlu-C14 diacid])KILLEQEKQKKQREQAETN[Api]QILAQV-NH2
SMILES: CC[C@H](C)[C@H](NC(C)=O)C(=O)N[C@H](C(=O)N[C@@H](CC(C)C)C(=O)N[C@@H](CO)C(=O)N[C@@H](CC(C)C)C(=O)N[C@@H](CC(=O)O)C(=O)N[C@@H](C(=O)N1CCC[C@H]1C(=O)N[C@H](C(=O)N[C@@H](CCCCN)C(=O)N[C@@H](CC(C)C)C(=O)N[C@@H](CCCCNC(=O)COCCOCCNC(=O)COCCOCCNC(=O)CC[C@H](NC(=O)CC[C@H](NC(=O)CCCCCCCCCCCCC(=O)O)C(=O)O)C(=O)O)C(=O)N[C@@H](CCCCN)C(=O)N[C@H](C(=O)N[C@@H](CC(C)C)C(=O)N[C@@H](CC(C)C)C(=O)N[C@@H](CCC(=O)O)C(=O)N[C@@H](CCC(N)=O)C(=O)N[C@@H](CCC(=O)O)C(=O)N[C@@H](CCCCN)C(=O)N[C@@H](CCC(N)=O)C(=O)N[C@@H](CCCCN)C(=O)N[C@@H](CCCCN)C(=O)N[C@@H](CCC(N)=O)C(=O)N[C@@H](CCCNC(=N)N)C(=O)N[C@@H](CCC(=O)O)C(=O)N[C@@H](CCC(N)=O)C(=O)N[C@@H](C)C(=O)N[C@@H](CCC(=O)O)C(=O)N[C@H](C(=O)N[C@@H](CC(N)=O)C(=O)NC1(C(=O)N[C@@H](CCC(N)=O)C(=O)N[C@H](C(=O)N[C@@H](CC(C)C)C(=O)N[C@@H](C)C(=O)N[C@@H](CCC(N)=O)C(=O)N[C@H](C(N)=O)C(C)C)[C@@H](C)CC)CCNCC1)[C@@H](C)O)[C@@H](C)CC)[C@@H](C)CC)C(C)C)C(C)C
B5: SEQ ID NO 178 (peptide)
peptide: [NMeI]VLSLD[dV]PIKLK([AEEA-AEEA-γGlu-C14 diacid])KILLEQEKQKKQREQAETN[Aib]QILAQV-NH2
modifications: N-terminus assumed
SMILES: CC[C@H](C)[C@H](NC)C(=O)N[C@H](C(=O)N[C@@H](CC(C)C)C(=O)N[C@@H](CO)C(=O)N[C@@H](CC(C)C)C(=O)N[C@@H](CC(=O)O)C(=O)N[C@@H](C(=O)N1CCC[C@H]1C(=O)N[C@H](C(=O)N[C@@H](CCCCN)C(=O)N[C@@H](CC(C)C)C(=O)N[C@@H](CCCCNC(=O)COCCOCCNC(=O)COCCOCCNC(=O)CC[C@H](NC(=O)CCCCCCCCCCCCC(=O)O)C(=O)O)C(=O)N[C@@H](CCCCN)C(=O)N[C@H](C(=O)N[C@@H](CC(C)C)C(=O)N[C@@H](CC(C)C)C(=O)N[C@@H](CCC(=O)O)C(=O)N[C@@H](CCC(N)=O)C(=O)N[C@@H](CCC(=O)O)C(=O)N[C@@H](CCCCN)C(=O)N[C@@H](CCC(N)=O)C(=O)N[C@@H](CCCCN)C(=O)N[C@@H](CCCCN)C(=O)N[C@@H](CCC(N)=O)C(=O)N[C@@H](CCCNC(=N)N)C(=O)N[C@@H](CCC(=O)O)C(=O)N[C@@H](CCC(N)=O)C(=O)N[C@@H](C)C(=O)N[C@@H](CCC(=O)O)C(=O)N[C@H](C(=O)N[C@@H](CC(N)=O)C(=O)NC(C)(C)C(=O)N[C@@H](CCC(N)=O)C(=O)N[C@H](C(=O)N[C@@H](CC(C)C)C(=O)N[C@@H](C)C(=O)N[C@@H](CCC(N)=O)C(=O)N[C@H](C(N)=O)C(C)C)[C@@H](C)CC)[C@@H](C)O)[C@@H](C)CC)[C@@H](C)CC)C(C)C)C(C)C
B6: SEQ ID NO 176 (peptide)
peptide: [NMeI]VLSLD[dV]PIKLK([γGlu-C14 diacid])KILLEQEKQKAQREQAETN[Aib]QILAQV-NH2
modifications: N-terminus assumed
SMILES: CC[C@H](C)[C@H](NC)C(=O)N[C@H](C(=O)N[C@@H](CC(C)C)C(=O)N[C@@H](CO)C(=O)N[C@@H](CC(C)C)C(=O)N[C@@H](CC(=O)O)C(=O)N[C@@H](C(=O)N1CCC[C@H]1C(=O)N[C@H](C(=O)N[C@@H](CCCCN)C(=O)N[C@@H](CC(C)C)C(=O)N[C@@H](CCCCNC(=O)CC[C@H](NC(=O)CCCCCCCCCCCCC(=O)O)C(=O)O)C(=O)N[C@@H](CCCCN)C(=O)N[C@H](C(=O)N[C@@H](CC(C)C)C(=O)N[C@@H](CC(C)C)C(=O)N[C@@H](CCC(=O)O)C(=O)N[C@@H](CCC(N)=O)C(=O)N[C@@H](CCC(=O)O)C(=O)N[C@@H](CCCCN)C(=O)N[C@@H](CCC(N)=O)C(=O)N[C@@H](CCCCN)C(=O)N[C@@H](C)C(=O)N[C@@H](CCC(N)=O)C(=O)N[C@@H](CCCNC(=N)N)C(=O)N[C@@H](CCC(=O)O)C(=O)N[C@@H](CCC(N)=O)C(=O)N[C@@H](C)C(=O)N[C@@H](CCC(=O)O)C(=O)N[C@H](C(=O)N[C@@H](CC(N)=O)C(=O)NC(C)(C)C(=O)N[C@@H](CCC(N)=O)C(=O)N[C@H](C(=O)N[C@@H](CC(C)C)C(=O)N[C@@H](C)C(=O)N[C@@H](CCC(N)=O)C(=O)N[C@H](C(N)=O)C(C)C)[C@@H](C)CC)[C@@H](C)O)[C@@H](C)CC)[C@@H](C)CC)C(C)C)C(C)C

The binders below were run against T1, CRF1R receptor (assay: cell-based or functional assay).

Row | Binder | EC50 | Emax (% I)
1 | B1 | > 250 nM | 11%
2 | B2 | – | 10%
3 | B3 | – | -4%
4 | B4 | – | 5%
5 | B5 | – | 1%
6 | B6 | – | 8%

The binders below were run against human corticotropin-releasing factor 2a (CRF2a receptor) (human), Q13324 (assay: cell-based or functional assay).
Sequence of human corticotropin-releasing factor 2a (CRF2a receptor) (human), Q13324 (Q13324 20-411): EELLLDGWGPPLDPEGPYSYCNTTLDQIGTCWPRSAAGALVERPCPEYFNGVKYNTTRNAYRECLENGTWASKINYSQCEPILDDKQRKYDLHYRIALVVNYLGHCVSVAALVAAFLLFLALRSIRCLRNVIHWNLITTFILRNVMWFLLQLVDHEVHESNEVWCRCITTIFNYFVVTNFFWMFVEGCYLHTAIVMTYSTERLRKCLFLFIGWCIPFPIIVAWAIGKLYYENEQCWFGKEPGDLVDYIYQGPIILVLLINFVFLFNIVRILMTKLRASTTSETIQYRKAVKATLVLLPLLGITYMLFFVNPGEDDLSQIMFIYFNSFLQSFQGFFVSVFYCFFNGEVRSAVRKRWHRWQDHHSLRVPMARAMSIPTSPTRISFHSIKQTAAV

Row | Binder | EC50 [nM] (cAMP)
7 | B1 | 16.2 nM
8 | B2 | 0.86 nM
9 | B3 | 15.6 nM
10 | B4 | 18.9 nM
11 | B5 | 6.5 nM
12 | B6 | 0.99 nM

Reference: patent US20260001928A1 (CORTERIA PHARMACEUTICALS, priority 2022, published 2026)
